Assay results as given in PMC12518842.

Target: NISTmAb Primary Sample (PS 8670)
Test: FPLC; mAb sample after buffer exchange; sample buffer 15 mM acetic acid, 40 mM NaCl, pH 5 (ionic strength 50 mM); column and running conditions not told

- percent dimers: < 1%
Substance: NISTmAb Primary Sample (PS 8670) (antibody)
